Assay results as given in the supplement of paper PMC9876800.

System: peptide library, one residue held at a place counted from the S/T acceptor
Test: relative phosphorylation of the sub-library (ratio to the mean residue at this position); higher = residue favoured
Outline: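 Each biotinylated degenerate peptide sub-library fixed one residue at one position around a central Ser/Thr and was incubated with a purified recombinant kinase, a human or orthologue construct, in 384-well plates. The 90 min reactions, under kinase-specific conditions, contained 50 μM peptide and 50 μM ATP spiked with γ-32P-ATP. Phosphorylation was read by phosphorimaging spots on streptavidin membranes and quantifying them by densitometry. Relative sub-library phosphorylation expresses each value as a ratio to the mean residue at that position.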

Chain of CILK1, construct: Full length, human (Q9UPZ9 whole entry, looked up): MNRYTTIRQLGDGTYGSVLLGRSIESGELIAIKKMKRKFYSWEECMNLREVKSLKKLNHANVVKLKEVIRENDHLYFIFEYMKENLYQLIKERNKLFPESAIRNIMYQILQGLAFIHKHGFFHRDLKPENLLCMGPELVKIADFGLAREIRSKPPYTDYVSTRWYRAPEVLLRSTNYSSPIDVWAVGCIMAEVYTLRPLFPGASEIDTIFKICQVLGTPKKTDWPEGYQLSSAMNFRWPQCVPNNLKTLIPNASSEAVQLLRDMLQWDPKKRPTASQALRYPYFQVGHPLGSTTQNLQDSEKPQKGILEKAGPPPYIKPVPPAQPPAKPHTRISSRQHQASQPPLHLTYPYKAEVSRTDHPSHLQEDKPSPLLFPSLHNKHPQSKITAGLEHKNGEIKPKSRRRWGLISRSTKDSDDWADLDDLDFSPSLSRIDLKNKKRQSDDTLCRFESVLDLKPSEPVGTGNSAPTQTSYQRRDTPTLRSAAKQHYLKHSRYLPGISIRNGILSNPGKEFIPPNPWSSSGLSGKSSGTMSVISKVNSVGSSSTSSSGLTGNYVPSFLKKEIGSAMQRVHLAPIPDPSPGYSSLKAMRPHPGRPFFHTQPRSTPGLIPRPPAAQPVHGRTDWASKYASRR
Chain of DAPK2, construct: Full length, human (Q9UIK4 whole entry, looked up): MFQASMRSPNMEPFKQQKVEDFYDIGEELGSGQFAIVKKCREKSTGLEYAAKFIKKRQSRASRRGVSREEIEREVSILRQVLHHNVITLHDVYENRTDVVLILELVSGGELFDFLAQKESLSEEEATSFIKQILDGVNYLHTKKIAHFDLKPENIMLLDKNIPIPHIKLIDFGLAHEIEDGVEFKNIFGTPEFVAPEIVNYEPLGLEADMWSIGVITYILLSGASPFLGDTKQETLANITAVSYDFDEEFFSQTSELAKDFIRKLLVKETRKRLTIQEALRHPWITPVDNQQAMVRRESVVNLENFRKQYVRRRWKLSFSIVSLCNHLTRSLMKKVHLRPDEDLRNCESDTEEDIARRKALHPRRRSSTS
Chain of CDK17, construct: Full length, human (Q00537 whole entry, looked up): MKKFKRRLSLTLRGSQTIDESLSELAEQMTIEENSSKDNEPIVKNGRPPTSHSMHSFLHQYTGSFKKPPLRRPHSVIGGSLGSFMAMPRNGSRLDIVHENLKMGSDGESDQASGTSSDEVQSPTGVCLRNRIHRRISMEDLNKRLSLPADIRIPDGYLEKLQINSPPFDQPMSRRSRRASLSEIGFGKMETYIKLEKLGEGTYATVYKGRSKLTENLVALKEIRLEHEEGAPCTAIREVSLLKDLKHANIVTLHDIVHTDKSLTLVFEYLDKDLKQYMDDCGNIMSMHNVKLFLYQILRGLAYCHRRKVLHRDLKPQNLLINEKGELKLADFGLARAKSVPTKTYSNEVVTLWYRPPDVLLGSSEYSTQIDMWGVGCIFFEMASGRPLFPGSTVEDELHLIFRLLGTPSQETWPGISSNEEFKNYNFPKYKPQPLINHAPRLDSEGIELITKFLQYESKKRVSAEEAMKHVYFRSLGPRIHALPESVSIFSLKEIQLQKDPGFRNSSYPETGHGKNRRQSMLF
Chain of CDK19, construct: Full length, human (Q9BWU1 whole entry, looked up): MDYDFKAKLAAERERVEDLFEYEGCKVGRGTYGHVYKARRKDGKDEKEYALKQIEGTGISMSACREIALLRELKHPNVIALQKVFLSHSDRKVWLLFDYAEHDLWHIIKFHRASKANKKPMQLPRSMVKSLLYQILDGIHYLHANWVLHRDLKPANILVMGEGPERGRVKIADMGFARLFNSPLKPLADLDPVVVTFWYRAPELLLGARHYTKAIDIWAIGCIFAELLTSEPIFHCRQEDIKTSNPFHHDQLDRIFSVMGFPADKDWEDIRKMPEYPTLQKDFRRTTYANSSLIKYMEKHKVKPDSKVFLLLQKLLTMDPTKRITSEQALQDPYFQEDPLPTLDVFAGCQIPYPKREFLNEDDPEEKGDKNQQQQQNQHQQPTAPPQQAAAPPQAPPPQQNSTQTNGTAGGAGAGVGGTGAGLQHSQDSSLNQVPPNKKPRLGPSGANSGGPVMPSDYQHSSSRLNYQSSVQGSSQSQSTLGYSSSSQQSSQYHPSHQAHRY

CDK17, construct: Full length, human (from UniProt Q00537)
relative phosphorylation
Details | at +1 | at +2 | at +3 | at +4 | at -1 | at -2 | at -3 | at -4 | at -5
A fixed | 0.203 | 0.683 | 0.739 | 1 | 0.979 | 1.25 | 0.977 | 0.99 | 1.07
D fixed | 0.116 | 0.603 | 0.323 | 0.54 | 0.654 | 0.496 | 0.806 | 0.95 | 0.96
E fixed | 0.109 | 0.412 | 0.294 | 0.427 | 0.49 | 0.585 | 0.902 | 1.02 | 0.845
F fixed | 0.152 | 0.697 | 0.959 | 0.828 | 0.644 | 0.742 | 0.666 | 0.802 | 0.856
G fixed | 0.781 | 0.865 | 0.862 | 1.86 | 1.93 | 0.898 | 1.62 | 1.19 | 1.01
H fixed | 0.152 | 1.16 | 0.66 | 1.14 | 0.801 | 0.831 | 0.907 | 0.98 | 1.18
I fixed | 0.157 | 0.826 | 1.48 | 0.823 | 0.251 | 0.872 | 0.68 | 0.836 | 0.806
K fixed | 0.236 | 2.09 | 0.904 | 1.32 | 1.61 | 0.701 | 0.945 | 1.34 | 1.49
L fixed | 0.17 | 1.03 | 2.01 | 0.797 | 0.689 | 0.962 | 0.675 | 0.779 | 0.98
M fixed | 0.17 | 1.02 | 1.99 | 0.99 | 1.06 | 1.13 | 0.881 | 0.822 | 0.861
N fixed | 0.174 | 1.15 | 0.854 | 0.987 | 1.03 | 1 | 1.21 | 1.37 | 1.02
P fixed | 13.6 | 0.758 | 1.66 | 0.889 | 1.69 | 3.2 | 2.12 | 1.41 | 1.06
Q fixed | 0.195 | 1 | 0.962 | 0.962 | 1.28 | 0.893 | 1.03 | 0.933 | 0.834
R fixed | 0.191 | 1.92 | 0.783 | 1.52 | 1.51 | 0.875 | 1.13 | 0.924 | 1.01
V fixed | 0.222 | 0.863 | 1.07 | 0.77 | 0.403 | 0.859 | 0.782 | 0.605 | 0.698
W fixed | 0.181 | 0.879 | 0.791 | 1.09 | 0.999 | 0.887 | 0.855 | 1.14 | 1.19
Y fixed | 0.149 | 1.05 | 0.65 | 1.06 | 0.97 | 0.824 | 0.818 | 0.907 | 1.12
pThr fixed | 0.514 | 0.699 | 0.939 | 0.451 | 0.438 | 0.909 | 1.06 | 1.04 | 0.832
pTyr fixed | 0.707 | 0.491 | 0.903 | 0.492 | 0.452 | 0.788 | 0.883 | 0.7 | 0.88

CDK19, construct: Full length, human (from UniProt Q9BWU1)
relative phosphorylation
Details | at +1 | at +2 | at +3 | at +4 | at -1 | at -2 | at -3 | at -4 | at -5
A fixed | 0.247 | 1.28 | 1.17 | 0.978 | 1.14 | 1.69 | 1.08 | 1.05 | 0.905
D fixed | 0.112 | 0.577 | 0.659 | 1.05 | 0.698 | 0.518 | 0.695 | 0.93 | 1.26
E fixed | 0.114 | 0.592 | 0.564 | 0.915 | 0.416 | 0.463 | 0.881 | 1.1 | 1.23
F fixed | 0.193 | 0.915 | 0.784 | 0.971 | 0.947 | 0.465 | 1.18 | 1.22 | 1.42
G fixed | 0.865 | 1.39 | 1.39 | 1.15 | 1.64 | 0.829 | 1.27 | 1.07 | 1.02
H fixed | 0.295 | 1.02 | 1.1 | 0.988 | 0.929 | 0.589 | 0.958 | 0.997 | 1.11
I fixed | 0.378 | 0.721 | 0.633 | 0.857 | 0.238 | 0.935 | 0.602 | 1.01 | 0.863
K fixed | 0.198 | 1.08 | 0.651 | 0.736 | 0.93 | 0.276 | 0.61 | 0.73 | 0.702
L fixed | 0.271 | 1.09 | 0.685 | 0.948 | 0.948 | 1.09 | 0.67 | 1.04 | 0.878
M fixed | 0.32 | 1.22 | 1.1 | 1.1 | 1.5 | 0.922 | 1.39 | 1.07 | 0.895
N fixed | 0.371 | 0.959 | 1.33 | 1.02 | 0.918 | 0.658 | 1.26 | 0.741 | 0.879
P fixed | 11.8 | 0.913 | 2.42 | 1.28 | 1.61 | 5.16 | 1.39 | 0.878 | 0.771
Q fixed | 0.314 | 1.1 | 0.892 | 1.01 | 1 | 0.846 | 1.16 | 0.881 | 0.801
R fixed | 0.186 | 1.51 | 0.934 | 0.919 | 1.53 | 0.393 | 0.674 | 0.875 | 0.844
V fixed | 0.92 | 0.725 | 0.903 | 0.945 | 0.425 | 1.25 | 0.583 | 0.786 | 0.685
W fixed | 0.248 | 1 | 0.881 | 1.24 | 1.01 | 0.498 | 1.45 | 1.34 | 1.08
Y fixed | 0.196 | 0.925 | 0.918 | 0.888 | 1.11 | 0.423 | 1.15 | 1.28 | 1.65
pThr fixed | 0.381 | 0.481 | 0.581 | 0.829 | 0.318 | 0.651 | 0.695 | 0.915 | 0.914
pTyr fixed | 0.344 | 0.83 | 0.733 | 0.902 | 0.505 | 0.427 | 0.718 | 1.03 | 1.12

CILK1, construct: Full length, human (from UniProt Q9UPZ9)
relative phosphorylation
Details | at +1 | at +2 | at +3 | at +4 | at -1 | at -2 | at -3 | at -4 | at -5
A fixed | 1.36 | 0.902 | 0.838 | 1.02 | 0.938 | 0.718 | 0.93 | 1.04 | 0.881
D fixed | 0.474 | 1.08 | 0.774 | 0.815 | 0.661 | 0.491 | 0.557 | 0.803 | 1.07
E fixed | 0.464 | 0.744 | 0.722 | 0.771 | 0.577 | 0.498 | 0.498 | 0.825 | 0.875
F fixed | 0.972 | 0.992 | 0.98 | 0.809 | 0.675 | 0.559 | 0.567 | 0.922 | 0.991
G fixed | 1.22 | 1.08 | 1.23 | 1.29 | 1.22 | 0.82 | 0.734 | 1.08 | 1.03
H fixed | 0.668 | 1.27 | 1.22 | 1.25 | 1.04 | 0.615 | 0.662 | 0.982 | 1.1
I fixed | 0.907 | 0.936 | 0.834 | 0.819 | 0.497 | 0.55 | 0.556 | 0.768 | 0.802
K fixed | 0.752 | 0.968 | 1.33 | 1.09 | 1.63 | 1.09 | 1.07 | 1.21 | 1.1
L fixed | 0.818 | 0.859 | 0.957 | 0.933 | 0.755 | 0.616 | 0.556 | 0.835 | 0.953
M fixed | 0.929 | 0.967 | 0.877 | 0.926 | 1.13 | 0.652 | 0.709 | 1.03 | 0.929
N fixed | 0.601 | 1.13 | 0.883 | 1.09 | 1.15 | 0.619 | 0.651 | 0.92 | 0.917
P fixed | 3.85 | 0.907 | 1.15 | 1.22 | 1.36 | 4.79 | 1.09 | 1.19 | 1.04
Q fixed | 0.751 | 1.07 | 1.07 | 1.11 | 1.46 | 0.938 | 0.794 | 1.03 | 1
R fixed | 0.79 | 1.02 | 1.25 | 1.04 | 1.53 | 2.19 | 5.98 | 1.55 | 1.32
V fixed | 0.877 | 0.781 | 0.799 | 0.739 | 0.694 | 0.555 | 0.515 | 0.791 | 0.776
W fixed | 0.87 | 1.12 | 1.02 | 1.03 | 0.835 | 0.69 | 0.609 | 1.14 | 1.15
Y fixed | 0.702 | 1.17 | 1.08 | 1.05 | 0.845 | 0.604 | 0.522 | 0.89 | 1.06
pThr fixed | 0.722 | 0.66 | 0.828 | 1.06 | 0.459 | 0.561 | 0.625 | 0.828 | 0.807
pTyr fixed | 0.711 | 0.992 | 0.796 | 0.93 | 0.513 | 0.514 | 0.564 | 0.68 | 0.841

DAPK2, construct: Full length, human (from UniProt Q9UIK4)
relative phosphorylation
Details | at +1 | at +2 | at +3 | at +4 | at -1 | at -2 | at -3 | at -4 | at -5
A fixed | 0.947 | 0.886 | 0.931 | 0.893 | 0.907 | 1.2 | 0.902 | 1.03 | 1.03
D fixed | 1.24 | 0.825 | 0.801 | 0.816 | 0.878 | 0.624 | 0.608 | 0.797 | 0.77
E fixed | 1.3 | 0.846 | 0.813 | 0.758 | 0.71 | 0.591 | 0.558 | 0.795 | 0.703
F fixed | 0.985 | 1.1 | 0.998 | 1.22 | 0.902 | 0.704 | 0.778 | 1.03 | 1.02
G fixed | 1.02 | 0.895 | 1.01 | 0.933 | 0.983 | 0.869 | 0.846 | 1.02 | 1.08
H fixed | 0.861 | 0.962 | 0.951 | 1.22 | 0.992 | 1.08 | 0.869 | 0.967 | 0.926
I fixed | 0.909 | 1.02 | 1.6 | 1.02 | 0.854 | 0.645 | 0.697 | 0.888 | 0.955
K fixed | 0.739 | 0.891 | 0.842 | 0.837 | 1.22 | 1.23 | 1.59 | 1.12 | 1.09
L fixed | 0.863 | 1.34 | 1.27 | 0.995 | 1.2 | 0.725 | 0.754 | 0.949 | 1.06
M fixed | 1.04 | 1.34 | 0.968 | 0.882 | 1.03 | 0.739 | 0.758 | 0.964 | 0.99
N fixed | 1.25 | 0.913 | 0.852 | 0.912 | 1.25 | 0.855 | 0.666 | 0.97 | 0.839
P fixed | 0.736 | 1.04 | 0.983 | 1.09 | 1.11 | 0.775 | 0.881 | 1.04 | 1.08
Q fixed | 1.77 | 0.983 | 0.878 | 0.927 | 0.995 | 0.838 | 0.716 | 0.915 | 0.869
R fixed | 0.838 | 1.05 | 1 | 0.958 | 1.21 | 3.71 | 3.95 | 1.45 | 1.47
V fixed | 0.91 | 0.948 | 1.15 | 0.973 | 0.916 | 0.688 | 0.674 | 0.894 | 0.92
W fixed | 0.79 | 0.943 | 1 | 1.39 | 0.856 | 0.961 | 0.898 | 1.06 | 0.98
Y fixed | 0.797 | 1.02 | 0.948 | 1.18 | 0.994 | 0.765 | 0.861 | 1.11 | 1.23
pThr fixed | 1.74 | 1.06 | 0.929 | 0.994 | 0.74 | 0.649 | 0.685 | 0.818 | 0.831
pTyr fixed | 1.15 | 1.02 | 1.16 | 1.04 | 0.969 | 0.696 | 0.682 | 0.811 | 0.827
